# Patent US20220362357A1, “Synergistic Combinations of Amino Acid Depletion Agent Sensitizers (AADAS) and Amino Acid Depletion Agents (AADA), and Therapeutic Methods of Use Thereof” (STICHTING RADBOUD UNIVERSITAIR MEDISCH CENTRUM, priority 2018, published 2022)
# B1: ASNase: native E. coli ASNase (NCBI WP_000394140.1), used in the in vitro studies (protein, UniProt P00805 23-348, looked up)
# L-asparaginase 2: LPNITILATGGTIAGGGDSATKSNYTVGKVGVENLVNAVPQLKDIANVKGEQVVNIGSQDMNDNVWLTLAKKINTDCDKTDGFVITHGTDTMEETAYFLDLTVKCDKPVVMVGAMRPSTSMSADGPFNLYNAVVTAADKASANRGVLVVMNDTVLDGRDVTKTNTTDVATFKSVNYGPLGYIHNGKIDYQRTPARKHTSDTPFDVSKLNELPKVGIVYNYANASDLPAKALVDAGYDGIVSAGVGNGNLYKSVFDTLATAAKTGTAVVRSSRVPTGATTQDAEVDDAKYGFVASGTLNPQKARVLLQLALTQTKDPQQIQQIFNQY
# Assays:
# Assay in all cases: PDX ALL cells co-cultured on hTERT MSCs, ASNase x ibrutinib dilution matrix, microscopy
# Type in all cases: cell-based, human
# PDX m4206 = settings: m4206 (7 d); ASNase A9 (A=100); ibrutinib B0=0 to B9=100
# Protocol: (§1) After 2-4 months these mice developed full blown leukemia with an immunophenotype and genetic composition that in the large majority of cases is identical to the original material at the time of injection.
# (§2) Briefly, hTERT immortalized MSCs were seeded in either a 384 wells format (microscopy) or a 96 wells format (7AAD staining) and allowed to settle for 24 hours prior to the addition of ALL xenografts. […] After 3 and 7 days of incubation, cell death was analyzed using microscopy using live cells staining or flowcytometry using 7AAD to discriminate between live or dead cells.
# PDX m764 = settings: m764 (3 d), ibrutinib B0=0 to B9=100
# Protocol: as §1, §2
# PDX m838 = settings: m838 (3 d), ibrutinib B0=0 to B9=100
# Protocol: as §1, §2
# PDX m3810 = settings: ibrutinib B0=0 to B9=100
# Protocol: as §1, §2
# PDX m1095 = settings: m1095 (3 d), ibrutinib B0=0 to B9=100
# Protocol: as §1, §2
# PDX m1600 = settings: m1600 (3 d), ibrutinib B0=0 to B9=100
# Protocol: as §1, §2
molecule,measurement,setting,value
B1,live cells by automated microscopy (table names no quantity),PDX m4206,35
same,live cells by automated microscopy (table names no quantity),PDX m764; ASNase A1=0.01,546
same,live cells by automated microscopy (table names no quantity),PDX m764; ASNase A2=0.03,1126
same,live cells by automated microscopy (table names no quantity),PDX m764; ASNase A3=0.1,109
same,live cells by automated microscopy (table names no quantity),PDX m764; ASNase A4=0.3,250
same,live cells by automated microscopy (table names no quantity),PDX m764; ASNase A5=1,915
same,live cells by automated microscopy (table names no quantity),PDX m764; ASNase A6=3,887
same,live cells by automated microscopy (table names no quantity),PDX m764; ASNase A7=10,594
same,live cells by automated microscopy (table names no quantity),PDX m764; ASNase A8=32,157
same,live cells by automated microscopy (table names no quantity),PDX m764; ASNase A9 (A=100),2
same,live cells by automated microscopy (table names no quantity),PDX m838; ASNase A1=0.01,2793
same,live cells by automated microscopy (table names no quantity),PDX m838; ASNase A2=0.03,3003
same,live cells by automated microscopy (table names no quantity),PDX m838; ASNase A3=0.1,3109
same,live cells by automated microscopy (table names no quantity),PDX m838; ASNase A4=0.3,2839
same,live cells by automated microscopy (table names no quantity),PDX m838; ASNase A5=1,2454
same,live cells by automated microscopy (table names no quantity),PDX m838; ASNase A6=3,3049
same,live cells by automated microscopy (table names no quantity),PDX m838; ASNase A7=10,2431
same,live cells by automated microscopy (table names no quantity),PDX m838; ASNase A8=32,175
same,live cells by automated microscopy (table names no quantity),PDX m838; ASNase A9 (A=100),18
same,live cells by automated microscopy (table names no quantity),"PDX m3810; m3810 (3 d), ASNase A1=0.01",1232
same,live cells by automated microscopy (table names no quantity),"PDX m3810; m3810 (3 d), ASNase A2=0.03",2209
same,live cells by automated microscopy (table names no quantity),"PDX m3810; m3810 (3 d), ASNase A3=0.1",1405
same,live cells by automated microscopy (table names no quantity),"PDX m3810; m3810 (3 d), ASNase A4=0.3",1982
same,live cells by automated microscopy (table names no quantity),"PDX m3810; m3810 (3 d), ASNase A5=1",1472
same,live cells by automated microscopy (table names no quantity),"PDX m3810; m3810 (3 d), ASNase A6=3",1497
same,live cells by automated microscopy (table names no quantity),"PDX m3810; m3810 (3 d), ASNase A7=10",1054
same,live cells by automated microscopy (table names no quantity),"PDX m3810; m3810 (3 d), ASNase A8=32",268
same,live cells by automated microscopy (table names no quantity),"PDX m3810; m3810 (3 d), ASNase A9 (A=100)",8
same,live cells by automated microscopy (table names no quantity),"PDX m3810; m3810 (7 d), ASNase A1=0.01",1776
same,live cells by automated microscopy (table names no quantity),"PDX m3810; m3810 (7 d), ASNase A2=0.03",1752
same,live cells by automated microscopy (table names no quantity),"PDX m3810; m3810 (7 d), ASNase A3=0.1",1563
same,live cells by automated microscopy (table names no quantity),"PDX m3810; m3810 (7 d), ASNase A4=0.3",1519
same,live cells by automated microscopy (table names no quantity),"PDX m3810; m3810 (7 d), ASNase A5=1",1136
same,live cells by automated microscopy (table names no quantity),"PDX m3810; m3810 (7 d), ASNase A6=3",1251
same,live cells by automated microscopy (table names no quantity),"PDX m3810; m3810 (7 d), ASNase A7=10",686
same,live cells by automated microscopy (table names no quantity),"PDX m3810; m3810 (7 d), ASNase A8=32",87
same,live cells by automated microscopy (table names no quantity),"PDX m3810; m3810 (7 d), ASNase A9 (A=100)",4
same,live cells by automated microscopy (table names no quantity),PDX m1095; ASNase A1=0.01,2935
same,live cells by automated microscopy (table names no quantity),PDX m1095; ASNase A2=0.03,2914
same,live cells by automated microscopy (table names no quantity),PDX m1095; ASNase A3=0.1,3089
same,live cells by automated microscopy (table names no quantity),PDX m1095; ASNase A4=0.3,3205
same,live cells by automated microscopy (table names no quantity),PDX m1095; ASNase A5=1,2579
same,live cells by automated microscopy (table names no quantity),PDX m1095; ASNase A6=3,549
same,live cells by automated microscopy (table names no quantity),PDX m1095; ASNase A7=10,2033
same,live cells by automated microscopy (table names no quantity),PDX m1095; ASNase A8=32,238
same,live cells by automated microscopy (table names no quantity),PDX m1095; ASNase A9 (A=100),30
same,live cells by automated microscopy (table names no quantity),PDX m1600; ASNase A1=0.01,4146
same,live cells by automated microscopy (table names no quantity),PDX m1600; ASNase A2=0.03,4603
same,live cells by automated microscopy (table names no quantity),PDX m1600; ASNase A3=0.1,3714
same,live cells by automated microscopy (table names no quantity),PDX m1600; ASNase A4=0.3,3134
same,live cells by automated microscopy (table names no quantity),PDX m1600; ASNase A5=1,4045
same,live cells by automated microscopy (table names no quantity),PDX m1600; ASNase A6=3,4366
same,live cells by automated microscopy (table names no quantity),PDX m1600; ASNase A7=10,3730
same,live cells by automated microscopy (table names no quantity),PDX m1600; ASNase A8=32,487
same,live cells by automated microscopy (table names no quantity),PDX m1600; ASNase A9 (A=100),4
